Test results as given in publication PMC11187126, “Structure and dynamics of the pyroglutamylated RF-amide peptide QRFP receptor GPR103” (Nature Communications, 2024).
Blank lines part the entries; values can stand above or below the substance they belong to.

Key:
GPR103 = settings: cited from earlier work
Excerpt: GPR103 is a Gi/o- and Gq-coupled GPCR expressed in the adrenal gland and various regions of the brain such as the hypothalamus, which plays a crucial role in the regulation of energy metabolism and appetite control. […] In this study, we focused on the structural analysis complexed with Gq. To facilitate expression and purification, we truncated the C-terminal residues after G366 of human GPR103. […] (Supplementary Fig. 1a–d and Supplementary Table 1). […] The heptapeptide is conserved from fish to mammals, except for S23 (Supplementary Fig. 6a), consistent with the fact that the S23 side chain poorly interacts with the receptor. The receptor residues interacting with the heptapeptide are highly conserved among the homologs (Supplementary Fig. 6b, c). Accordingly, this observed heptapeptide-TMD interaction plays a key role in evolutionarily conserved GPR103 activation.

[1] = cited from earlier work
Excerpt: GPR103 is a Gi/o- and Gq-coupled GPCR expressed in the adrenal gland and various regions of the brain such as the hypothalamus, which plays a crucial role in the regulation of energy metabolism and appetite control. QRFP and GPR103 are implicated in a variety of physiological functions ranging from the modulation of feeding behavior to the regulation of energy homeostasis, cardiovascular function, and bone formation. ... || In the current study, we have not only elucidated the architecture of the receptor but also shed light on the structure of QRFP itself, potentially paving the way for the modulation of QRFP-neurons (Q-neurons)[46]. […] The QRFP-induced hibernation-like state (QIH) provides an unusual model to study metabolic suppression for therapeutic purposes, as well as artificial hibernation. QIH through pharmacogenetics[47] or optogenetics[48] is achievable in murine models, ...

[2] = molecular target: GPR103 E203^ECL2A (human) (UniProt Q96P65)
Chain of GPR103 E203^ECL2A (human) (Q96P65 whole entry E203A): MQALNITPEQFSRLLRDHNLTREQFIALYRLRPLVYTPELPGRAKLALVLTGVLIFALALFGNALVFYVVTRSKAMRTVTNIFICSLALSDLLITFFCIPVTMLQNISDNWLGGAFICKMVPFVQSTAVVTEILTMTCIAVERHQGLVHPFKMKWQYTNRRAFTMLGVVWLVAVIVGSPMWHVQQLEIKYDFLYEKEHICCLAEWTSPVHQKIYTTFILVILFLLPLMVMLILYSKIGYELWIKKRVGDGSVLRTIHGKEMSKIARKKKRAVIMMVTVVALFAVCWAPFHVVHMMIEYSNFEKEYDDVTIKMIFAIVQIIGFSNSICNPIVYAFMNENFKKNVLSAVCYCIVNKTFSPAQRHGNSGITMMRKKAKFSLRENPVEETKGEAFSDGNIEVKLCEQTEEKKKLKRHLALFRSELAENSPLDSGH

[3] = molecular target: GPR103 E297^6.59A (human) (UniProt Q96P65)
Chain of GPR103 E297^6.59A (human) (Q96P65 whole entry E297A): as the sequence (Q96P65 whole entry E203A) above, with A203E, E297A counted along it

[4] = molecular target: GPR103 Q125^3.32 mutant (human) (UniProt Q96P65)
Chain of GPR103 Q125^3.32 mutant (human) (Q96P65 whole entry, change not shown): as the sequence (Q96P65 whole entry E203A) above, with A203E counted along it

[5] = molecular target: GPR103 Q318^7.39A (human) (UniProt Q96P65)
Chain of GPR103 Q318^7.39A (human) (Q96P65 whole entry Q318A): as the sequence (Q96P65 whole entry E203A) above, with A203E, Q318A counted along it

[6] = molecular target: GPR103 T102^2.61 mutant (human) (UniProt Q96P65)
Chain of GPR103 T102^2.61 mutant (human) (Q96P65 whole entry, change not shown): as the sequence (Q96P65 whole entry E203A) above, with A203E counted along it

[7] = molecular target: GPR103 alanine mutant of F11^N-term (human) (UniProt Q96P65)
Chain of GPR103 alanine mutant of F11^N-term (human) (Q96P65 other isoform, or with tags, fused parts or gaps mutant): as the sequence (Q96P65 whole entry E203A) above, with F11A, A203E counted along it

[8] = molecular target: GPR103 alanine mutant of F25^N-term (human) (UniProt Q96P65)
Chain of GPR103 alanine mutant of F25^N-term (human) (Q96P65 other isoform, or with tags, fused parts or gaps mutant): as the sequence (Q96P65 whole entry E203A) above, with F25A, A203E counted along it

[9] = molecular target: GPR103 alanine mutant of Y29^N-term (human) (UniProt Q96P65)
Chain of GPR103 alanine mutant of Y29^N-term (human) (Q96P65 other isoform, or with tags, fused parts or gaps mutant): as the sequence (Q96P65 whole entry E203A) above, with Y29A, A203E counted along it

GPR103 C98^2.57A (human) = GPR103 C98^2.57A (human) (UniProt Q96P65)
Chain of GPR103 C98^2.57A (human) (Q96P65 whole entry C98A): as the sequence (Q96P65 whole entry E203A) above, with C98A, A203E counted along it

Substance: GGFSFRF [C-terminal heptapeptide, C-terminal heptapeptide of QRFP26 (GGFSFRF)]
- GPR103 activation (in words) (GPR103; ref [27],[28]): sufficient to activate GPR103
- affinity (in words) (GPR103; ref [27],[28]): reduced affinity

Substance: EDEGSEATGFLPAAGEKTSGPLGNLAEELNGYSRKKGGFSFRF [QRFP43, pyroglutamylated RF-amide peptide, 43-amino acid RF-amide peptide with a pyroglutamylated N-terminus]
- activity for GPR103 (in words) (GPR103; ref [5]–[7]): specific activity for GPR103
- food intake and fat mass (in words) ([1]; QRFP administration, ref [11]): increased food intake and fat mass
- glucose-induced insulin release (in words) ([1]; QRFP administration, ref [11]): reducing glucose-induced insulin release
- osteopenia and nociception (in words) ([1]; QRFP administration, ref [11]): may also cause osteopenia and facilitate nociception
- orexigenic activity (in words) ([1]; ref [5]–[7]): orexigenic activity
- hypothermia and metabolism (in words) ([1]; ref [46]): capable of inducing an extended state of hypothermia and reduced metabolism

- QRFP26-induced activation of GPR103, TGFα shedding assay (reduction of potency against wild type) [2]: 3 fold
- QRFP26-induced activation of GPR103, TGFα shedding assay (reduction of potency against wild type) [3]: 10 fold
- QRFP26-induced activation of GPR103, TGFα shedding assay (reduction of potency against wild type) [4]: > 3 fold
- QRFP26-induced activation of GPR103, TGFα shedding assay (reduction of potency against wild type) [5]: > 3 fold
- QRFP26-induced activation of GPR103, TGFα shedding assay (reduction of potency against wild type) [6]: > 3 fold
- QRFP26-induced activation of GPR103, TGFα shedding assay (reduction of potency against wild type) [7]: 10 fold
- QRFP26-induced activation of GPR103, TGFα shedding assay (reduction of potency against wild type) [8]: 10 fold
- QRFP26-induced activation of GPR103, TGFα shedding assay (reduction of potency against wild type) [9]: 10 fold
- QRFP26-induced activation of GPR103, TGFα shedding assay (reduction of potency against wild type) (GPR103 C98^2.57A (human)): 3 fold
Substance: QRFP26 (from UniProt P83859 91-136) (peptide)
